Here are results for one substance from US20090305982A1.

The target of assay [1] is human IL-4 receptor alpha on cells (peripheral blood lymphocytes, primary B cells, TF-1, A549, PBMC) (human) (UniProt P24394). The assay is described as follows: cell-based or functional assay.
Assay [2] deals with cynomolgus IL-4 receptor alpha on peripheral blood lymphocytes (cynomolgus). Kind of assay: flow cytometry, cynomolgus peripheral blood lymphocytes, 10 µg/ml. (In general: A flow cytometer gives signals particle by particle.)
Assay [3] deals with human IL-4 receptor alpha on cells (peripheral blood lymphocytes, primary B cells, TF-1, A549, PBMC) (human) (UniProt P24394). Kind of assay: flow cytometry, human peripheral blood lymphocytes, 10 µg/ml.

Consider “wildtype tear lipocalin (gene product of pTLPC10) (from UniProt P31025 23-175)”, for which, in assay [1], the % Positive for STAT-6 phosphorylation, TF-1 cells + IL-4 worked out at 72%; the % Positive for STAT-6 phosphorylation, TF-1 cells + IL-13 was 84%; the MFI, STAT-6 phosphorylation, TF-1 cells + IL-4 worked out at 13.1; the MFI, STAT-6 phosphorylation, TF-1 cells + IL-13 came to 18.6. In addition, in assay [2], the % Positive came to 5% and the MFI worked out at 1.9. In assay [3], this substance showed a % Positive of 9% and an MFI of 3.2.
